Here are results for 1 substance from patent US20260258111A1.

For this assay, the target named is WT. Briefly: flow cytometry of CHO cells displaying the WT truncated domain, stained with labelled TRAIL; panel stands above the 2 ug/mL panel, its own TRAIL concentration is not labelled. (In flow cytometry, cells or beads pass a laser one at a time.)
Chain of WT (chain, as listed by the source limits assumed, form in doubt): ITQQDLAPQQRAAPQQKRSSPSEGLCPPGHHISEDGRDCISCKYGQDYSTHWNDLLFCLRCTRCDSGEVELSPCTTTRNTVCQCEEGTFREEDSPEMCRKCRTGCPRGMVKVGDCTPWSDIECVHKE

Take “APC-TRAIL (from UniProt P50591 114-281) (ligand)”: the APC-A, SSC-A subset (percent of cells in the gate) is 3.84%.
